{"source": "paper PMC2995059", "biological_target": "HA-tagged full-size GAM (GAM/ZFp/ZNF512B) (human) (UniProt Q96KM6)", "sequence (Q96KM6 whole entry)": "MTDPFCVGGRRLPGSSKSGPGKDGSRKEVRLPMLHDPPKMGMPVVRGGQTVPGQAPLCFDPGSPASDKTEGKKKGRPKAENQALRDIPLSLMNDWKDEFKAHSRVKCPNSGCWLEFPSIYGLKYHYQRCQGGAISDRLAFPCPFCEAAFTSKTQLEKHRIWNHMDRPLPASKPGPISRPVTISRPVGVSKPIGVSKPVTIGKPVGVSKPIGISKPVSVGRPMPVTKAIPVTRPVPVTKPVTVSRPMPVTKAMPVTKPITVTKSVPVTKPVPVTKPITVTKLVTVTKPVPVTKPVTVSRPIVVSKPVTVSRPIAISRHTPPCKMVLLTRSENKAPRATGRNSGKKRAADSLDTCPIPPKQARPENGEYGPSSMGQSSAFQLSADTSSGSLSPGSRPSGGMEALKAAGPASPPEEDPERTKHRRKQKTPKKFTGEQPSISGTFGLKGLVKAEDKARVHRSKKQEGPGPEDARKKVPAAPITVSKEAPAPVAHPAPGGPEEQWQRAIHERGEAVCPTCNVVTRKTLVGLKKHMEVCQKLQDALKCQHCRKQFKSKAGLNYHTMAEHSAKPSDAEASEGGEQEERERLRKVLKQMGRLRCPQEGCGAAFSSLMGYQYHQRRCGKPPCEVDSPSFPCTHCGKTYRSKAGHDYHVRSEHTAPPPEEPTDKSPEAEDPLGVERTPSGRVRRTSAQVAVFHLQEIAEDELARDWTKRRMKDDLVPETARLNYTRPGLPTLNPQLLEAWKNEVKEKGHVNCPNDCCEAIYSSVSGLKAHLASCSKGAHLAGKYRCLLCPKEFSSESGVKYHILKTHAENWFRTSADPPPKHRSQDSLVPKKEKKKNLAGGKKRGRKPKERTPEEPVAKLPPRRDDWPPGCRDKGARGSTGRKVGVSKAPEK", "experiment": "co-IP"}
{"binder": "endogenous Drosha (enzyme) MMQGNTCHRMSFHPGRGCPRGRGGHGARPSAPSFRPQNLRLLHPQQPPVQYQYEPPSAPSTTFSNSPAPNFLPPRPDFVPFPPPMPPSAQGPLPPCPIRPPFPNHQMRHPFPVPPCFPPMPPPMPCPNNPPVPGAPPGQGTFPFMMPPPSMPHPPPPPVMPQQVNYQYPPGYSHHNFPPPSFNSFQNNPSSFLPSANNSSSPHFRHLPPYPLPKAPSERRSPERLKHYDDHRHRDHSHGRGERHRSLDRRERGRSPDRRRQDSRYRSDYDRGRTPSRHRSYERSRERERERHRHRDNRRSPSLERSYKKEYKRSGRSYGLSVVPEPAGCTPELPGEIIKNTDSWAPPLEIVNHRSPSREKKRARWEEEKDRWSDNQSSGKDKNYTSIKEKEPEETMPDKNEEEEEELLKPVWIRCTHSENYYSSDPMDQVGDSTVVGTSRLRDLYDKFEEELGSRQEKAKAARPPWEPPKTKLDEDLESSSESECESDEDSTCSSSSDSEVFDVIAEIKRKKAHPDRLHDELWYNDPGQMNDGPLCKCSAKARRTGIRHSIYPGEEAIKPCRPMTNNAGRLFHYRITVSPPTNFLTDRPTVIEYDDHEYIFEGFSMFAHAPLTNIPLCKVIRFNIDYTIHFIEEMMPENFCVKGLELFSLFLFRDILELYDWNLKGPLFEDSPPCCPRFHFMPRFVRFLPDGGKEVLSMHQILLYLLRCSKALVPEEEIANMLQWEELEWQKYAEECKGMIVTNPGTKPSSVRIDQLDREQFNPDVITFPIIVHFGIRPAQLSYAGDPQYQKLWKSYVKLRHLLANSPKVKQTDKQKLAQREEALQKIRQKNTMRREVTVELSSQGFWKTGIRSDVCQHAMMLPVLTHHIRYHQCLMHLDKLIGYTFQDRCLLQLAMTHPSHHLNFGMNPDHARNSLSNCGIRQPKYGDRKVHHMHMRKKGINTLINIMSRLGQDDPTPSRINHNERLEFLGDAVVEFLTSVHLYYLFPSLEEGGLATYRTAIVQNQHLAMLAKKLELDRFMLYAHGPDLCRESDLRHAMANCFEALIGAVYLEGSLEEAKQLFGRLLFNDPDLREVWLNYPLHPLQLQEPNTDRQLIETSPVLQKLTEFEEAIGVIFTHVRLLARAFTLRTVGFNHLTLGHNQRMEFLGDSIMQLVATEYLFIHFPDHHEGHLTLLRSSLVNNRTQAKVAEELGMQEYAITNDKTKRPVALRTKTLADLLESFIAALYIDKDLEYVHTFMNVCFFPRLKEFILNQDWNDPKSQLQQCCLTLRTEGKEPDIPLYKTLQTVGPSHARTYTVAVYFKGERIGCGKGPSIQQAEMGAAMDALEKYNFPQMAHQKRFIERKYRQELKEMRWEREHQEREPDETEDIKK", "values": [{"measurement": "reduction of co-precipitated Drosha after RNase A pre-treatment of the extract", "value": 50, "unit": "%"}]}
